Source: patent US20110130328A1 (THE ADMINISTRATORS OF THE TULANE EDUCATIONAL FUND, published 2011)
No end group written: not given here.

The binders below were run against envelope glycoproteins E1 and E2 of the H77 strain of HCV, on HIV-core pseudotype virions (hepatitis C virus strain H77, UniProt P27958) (assay: cell-based or functional assay).

Compared with DAILHTPGCVPCVREGNA [peptide 57 (18 mer of E1 of HCV strain H77)], PRHHWTTQDCNCSIYPGH [peptide 68 (18 mer of E1 of HCV strain H77)] is higher in “Percent Inhibition of infection by the H77-E1E2 pseudotype (luciferase), peptide at about 25 µM” value (“Percent Inhibition of infection … at about 25 µM” for short): -49.4% for the first, 31.3% for the second.

First: SSGLYHVTNDCPNSSIVY [peptide 54 (18 mer of E1 of HCV strain H77)]
Second: IMDMIAGAHWGVLAGIKY [peptide 75 (18 mer of E1 of HCV strain H77)]
The “Percent Inhibition of infection … at about 25 µM” value of the first is higher: 99.9% for the first, 0.32% for the second.

Going from SCLTVPASAYQVRNSSGL [peptide 52 (18 mer of E1 of HCV strain H77)] to TNDCPNSSVVYEAADAIL [peptide 55 (18 mer of E1 of HCV strain H77)], the “Percent Inhibition of infection … at about 25 µM” value rises from -17.2% to 1.12%.

Compared with CGSVFLVGQLFTFSPRHH [peptide 66 (18 mer of E1 of HCV strain H77)], LLRIPQAIMDMIAGAHWG [peptide 74 (18 mer of E1 of HCV strain H77)] is lower in “Percent Inhibition of infection … at about 25 µM” value: 79.5% for the first, 71.1% for the second.

Compared with SIVYEAADAILHTPGCVP [peptide 56 (18 mer of E1 of HCV strain H77)], GSATLCSALYVGDLCGSV [peptide 64 (18 mer of E1 of HCV strain H77)] is lower in “Percent Inhibition of infection … at about 25 µM” value: 42.3% for the first, 0.55% for the second.

First: AALVVAQLLRIPQAIMDM [peptide 73 (18 mer of E1 of HCV strain H77)]
Second: LVVLLLFAGVDAETHVTG [peptide 79 (18 mer of E1 of HCV strain H77)]
The “Percent Inhibition of infection … at about 25 µM” value of the first is higher: 11.5% for the first, 10.6% for the second.

Compared with RHIDLLVGSATLCSALYV [peptide 63 (18 mer of E1 of HCV strain H77)], GCVPCVREGNASRCWVAV [peptide 58 (18 mer of E1 of HCV strain H77)] is lower in “Percent Inhibition of infection … at about 25 µM” value: 49.1% for the first, -4.42% for the second.

First: GQLFTFSPRHHWTTQDCN [peptide 67 (18 mer of E1 of HCV strain H77)]
Second: GIKYFSMVGNWAKVLVVL [peptide 77 (18 mer of E1 of HCV strain H77)]
The “Percent Inhibition of infection … at about 25 µM” value of the first is lower: 43.2% for the first, 50.4% for the second.

Compared with SAYQVRNSSGLYHVTNDC [peptide 53 (18 mer of E1 of HCV strain H77)], MMNWSPTAALVVAQLLRI [peptide 72 (18 mer of E1 of HCV strain H77)] is higher in “Percent Inhibition of infection … at about 25 µM” value: 0.23% for the first, 33.4% for the second.

First: VATRDGKLPTTQLRRHID [peptide 61 (18 mer of E1 of HCV strain H77)]
Second: LPTTQLRRHIDLLVGSAT [peptide 62 (18 mer of E1 of HCV strain H77)]
The “Percent Inhibition of infection … at about 25 µM” value of the first is lower: -30.8% for the first, -1.96% for the second.

For AHWGVLAGIKYFSMVGNW [peptide 76 (18 mer of E1 of HCV strain H77)], the “Percent Inhibition of infection … at about 25 µM” value was 15.3%.

Compared with QDCNCSIYPGHITGHRMA (not fully specified; cysteine pairing not given here) [peptide 69 (18 mer of E1 of HCV strain H77)], VGNWAKVLVVLLLFAGVD [peptide 78 (18 mer of E1 of HCV strain H77)] is higher in “Percent Inhibition of infection by the H77-E1E2 pseudotype (luciferase), peptide marked by asterisk: actual concentration 10 µM or less” value: -73.1% for the first, -21.1% for the second.

ALYVGDLCGSVFLVGQLF (not fully specified) [peptide 65 (18 mer of E1 of HCV strain H77)] was tested, and the “Percent Inhibition of infection by the H77-E1E2 pseudotype (luciferase), peptide marked by asterisk: actual concentration 10 µM or less” value was 22.9%.
